In the DeepSol protein solubility set:

assay: soluble on expression in E. coli; label from the status in PepcDB or PDB records

Soluble on expression in E. coli, not soluble:
MSLSMEFDAVIIGGGVSGCATFYTLSEYSSLKRVAIVEKCSKLAQISSSAKANSQTIHDGSIETNYTPEKAKKVRLSAYKTRQYALNKGLQNEVIFETQKMAIGVGDEECEFMKKRYESFKEIFVGLEEFDKQKIKELEPNVILGANGIDRHENIIGHGYRKDWSTMNFAKLSENFVEEALKLKPNNQVFLNFKVKKIEKRNDTYAVISEDAEEVYAKFVLVNAGSYALPLAQSMGYGLDLGCLPVAGSFYFVPDLLRGKVYTVQNPKLPFAAVHGDPDAVIKGKTRIGPTALTMPKLERNKCWLKGISLELLKMDLNKDVFKIAFDLMSDKEIRNYVFKNMVFELPIIGKRKFLKDAQKIIPSLSLEDLEYAHGFGEVRPQVLDRTKRKLELGEKKICEGHHHHHH
MSSSRHFSIPYDEDVVHSVILENTPSPPPKPPRGILRKEAPMKPQRSALKIEPARDDDKENNSQPQARSQFKAKDTMEQMQSYFKRSISVLRKSEEHFTGAEAADILTAYIETHRNEFPRDNIGRSNAVKLLEIWLESNTIQSVESHQKKFVDSERTFYRLGGDSESLYIVNTPIASRNHDDSASVSRSESSRRSNSIKRLFSPFVRRNRSNSRGRDKDKDNLKDGSSTNLKSTWSLFSSSSEKNEKKLKKAEQQLIKEEEAEVYELSLFHLLSLIDVEFLEDVALPVQDSKNNASFLSSILGKVGLGASEERLDPHQEDHMDLLIETHPLIRDASQWFQMARCCAPLLYFEAKPVASNHKTSHNEQLYLWCRAALDAVKNRLEKMTQNGSSPLFPSEFAPLLTKIAQQLINDMDSGEKLSTAVMYIFLMVPHPIRKTIDQLVQWLQLTMRTDAVEDLRSPYYLGKKDPRRYKENVNVIIGELSSFIFPRGCMTNVQQDIFIETLVELRQKGKLGQRPAQLESSLRAKSVNGQIKWQRKERKHNSLEGDLTPVRYTVRRESIRSKTSKSKDGLNETDSALVTMINSVIDNKELSLTEKKKQLMNFKKFYPKLYNDFFPGMI
MGHHHHHHSHMESLVVGDIAELRPNQGTLSLFTNEAGGILDDLIVTNTSEGHLYVVSNAGCWEKDLALMQDKVRELQNQGRDVGLEVLDNALLALQGPTAAQVLQAGVADDLRKLPFMTSAVMEVFGVSGCRVTRCGYTGEDGVEISVPVAGAVHLATAILKNPEVKLAGLAARDSLRLEAGLCLYGNDIDEHTTPVEGSLSWTLGKRRRAAMDFPGAKVIVPQLKGRVQRRRVGLMCEGAPMRAHSPILNMEGTKIGTVTSGCPSPSLKKNVAMGYVPCEYSRPGTMLLVELPSGPCF
MAHHHHHHSLKEAEVLKYEAFTSSPGKGNPAGVVLQGDDYTEDEMQIIAERAGYSETSFIRKSESADLELRYFTPGHEMNLCGHATVASLYALCEKGMLESGKTYSIQTKAGILPVKISEKDGRIHITLEQASPQFKPFTGDRKKLADALGITDEDFHEDLPIVFGSTGIWTAIVPLKSLEASKKMVPDNKQFPEVLVDLPKASVHPFTFETVHPDSDLHGRHFSSPYSGTIEDPVTGTASGVMGAYMKHYGNAEQHKFIIEQGQEIGKDGKVEIEMNEAGGHVKVNMTGTAVYSETRILKIEG
MADRRRTDDNKGAREVVLLLNIGSPDSPEEKDVARYLNSFLTDRRIITLPFLLRQLLVRGIITPFRKKSSAQKYRTVWDESTRSFPLISHTKAIARALAHTGREVHVAMRYGKPAVADVLKELPHGRSLVVLPLFPHYAMSSYETAVEHCKAEIRRLCPNLSFRVVQPFYAHEAYIRVLADNIRPYLTKPFDKLILSYHGIPRDHLDKTTRQALNLRHPEGCCTEEDPTANVCYRYQTYRTTALIREALGLAEEQVEQVFQSRVGHTEWLRPYLIERLSAWPQEETKRILIACPSFVCDCLESLEEVADHGQSIFKKAGGADFTYIPCLNSGANWIDALRNILEE
AGCEGLRIGQSALQARLSDQIDKLTQAEQHANQMLIDVRSRNHDTMKHITAIKSAQPKADTQAYIQNWADQYSQYDRFLKGENAYVAGVLYDFLEKARASNVSVSLHMHTPLSSLPFSPADQVSLVGNILENALDSAAEAREKAEIKLETSLRSGLYVLTCENSTPGMDPKVLDTIYQSFGRSTKNGAHEGMGTYIIQKLVKGAFGRLDFTYRHPIFRLEIKIPFQ

Soluble on expression in E. coli, soluble:
SHMRVLVCGGAGYIGSHFVRALLRDTNHSVVIVDSLVGTHGKSDHVETRENVARKLQQSDGPKPPWADRYAALEVGDVRNEDFLNGVFTRHGPIDAVVHMCAFLAVGESVRDPLKYYDNNVVGILRLLQAMLLHKCDKIIFSSSAAIFGNPTMGSVSTNAEPIDINAKKSPESPYGESKLIAERMIRDCAEAYGIKGICLRYFNACGAHEDGDIGEHYQGSTHLIPIILGRVMSDIAPDQRLTIHEDASTDKRMPIFGTDYPTPDGTCVRDYVHVCDLASAHILALDYVEKLGPNDKSKYFSVFNLGTSRGYSVREVIEVARKTTGHPIPVRECGRREGDPAYLVAASDKAREVLGWKPKYDTLEAIMETSWKFQRTHPNGYASQENGTPGGRTTKL
MTISTNHSLASRQQLKQGKPFSILVLGTDVGALGRGTSYAGNTDTLELITVNPKKHTLTTTAIPRDTLVRVETKNKIEYTKINAAYALGGPREIKKQVHELLDVPVDYYALVNMGGLEKTVNAVGGVTVNNPFAFKYEGHTYPKGKQYLNGSEALGYSRMRYDDPDNDYGRQKRGQQVLLSALTKVNKSKNIMQMNSLLDTAKDNVRTDLPLDDLMTLYKNYHGALADTQSDHLQGKNATIDNFSFQIAPNWEMQRLSDNTRQALGLTKVKVNNIQTKMNDMQTNWNGYNNVNYVLPNNAQVYIPVNKVLEHHHHHH
PSMPASPVLTKAGITWLSLQWSKPSGTPSDEGISYILEMEEETSGYGFKPKYDGEDLAYTVKNLRRSTKYKFKVIAYNSEGKSNPSEVVEFTTCPD
MAHHHHHHSLPIKIPDNLPAAKTLNEENIFFMDEDRAYHQDIRPLNIVIVNLMPTKIVTETQILRLIGNSPLQVNPTFIHTQTHKSQNTSKEHLIKFYETFEEIKNNKFDGMIVTGAPVETLSFENVDYWEELCRIFDWSVTNVTSTIHICWGAQAGLYHHYGIPKYELHEKLFGVFKHNLTERNIKLTRGFDDEFYAPHSRHTYVKREDIKKNPSLKILAESDEAGAYIVASENGKNIFVMGHAEYDGDTLNLEYIRDKNQGMNIKIPKNYFKDNDPEKGPMVTWRGHANLLFSNWLNYYVYQETPFELEG
AHHHHHHGSVLKCVVCGREYPEDEVRYRCECGGLLEVVIDLDKVDTSIFNGKEIKLWKYESWLPVKKRVSLEEGGTPLYRLLNLESDLGVKELYAKNEGANPTGSFKDRGMTVGVSKALELGMDKVICASTGNTSASLAAYAAKAGIKAYVLIPSGKIALGKLAQAIIYGARVVPIKGNFDDALRVVVETSKELGIYMLNSINPFRLEGQKTIAYEIYDQLGKVPDNVILPVGNAGNISAIWKGFKEMYEAGVIDELPRMIGIQAEGASPLAKAWKEKRKFQPEESPETIASAIRIGNPANWIKAWRAVEESGGLFESVSDEEILRAQKLLASREGLFVEPASAASLAGLIKLLESGEISRNESYVLITTGHGLKDPNIVIKNFQVPEPIDPTLEAFKEVIE
MSLTTIKTSNLGFPRIDLNREWKKALEAYWKGSTDKDTFLKQIDELFLSAVKTQIDQQIDVVPVSDFTQYDHVLDTAVSFNWIPKRFRHLTDATDTYFAIARGIKDAVSSEMTKWFNTNYHYIVPEYDESIEFRLTRNKQLEDYRRIKQEYGVETKPVIVGPYTFVTLAKGYEPSEAKAIQKRLVPLYVQLLKELEEEGVKWVQIDEPALVTASSEDVRGAKELFESITSELSSLNVLLQTYFDSVDAYEELISYPVQGIGLDFVHDKGRNLEQLKTHGFPTDKVLAAGVIDGRNIWKADLEESLDAVLDVLSIAKVDELWIQPSSSLLDVPVAKHPDEHLEKDLLNGLSYAKEKLAELTALKEGLVSGKAAISEEIQQAKADIQALKQFATGANSEQKKELEQLTDKDFKRPIPFEERLALQNESLGLPLLPTTTIGSFPQSAEVRRARQKWRKAEWSDEQYQNFINAETKRWIDIQEELELDVLVHGEFERTDMVEYFGEKLAGFAFTKYAWVQSYGSRCVRPPVIYGDVEFIEPMTVKDTVYAQSLTSKHVKGMLTGPVTILNWSFPRNDISRKEIAFQIGLALRKEVKALEDAGIQIIQVDEPALREGLPLKTRDWDEYLTWAAEAFRLTTSSVKNETQIHTHMCYSNFEDIVDTINDLDADVITIEHSRSHGGFLDYLKNHPYLKGLGLGVYDIHSPRVPSTEEMYNIIVDALAVCPTDRFWVNPDCGLKTRQQEETVAALKNMVEAAKQARAQQTQLVEGGSHHHHHH
